These results are taken from article PMC10629557, “Regulation of replication origin licensing by ORC phosphorylation reveals a two-step mechanism for Mcm2-7 ring closing” (Proceedings of the National Academy of Sciences of the …, 2023).

First the molecules themselves.
B1: FLAG-Clb5-Cdk1 (complex)
chain 1: MGENHDHEQSIKRNSMIYNENERQLCNSNLKILQNKRALSKNDSSSKQQVQDSKPRRALTDVPVNNNPLSQNKRIVAGSKAAKVRREENIRPIVSAVQKRQIYNDRTAAEQEEEEEEEGEDDDAASIVNKKRRIDAEGVSEIVGWQDLDYVEKDDTAMVAEYSAEIFAFLYRRELETLPSHNYLLDKTSKYYLRPSMRTILVDWLVEVHEKFQCYPETLFLSINLMDRFLAKNKVTMNKLQLLAVTSLFIAAKFEEVNLPKLAEYAYITDGAASKNDIKNAEMFMLTSLEFNIGWPNPLNFLRRISKADDYDPVNRNIGKFILEYAYCCHQFIHLPPSTVSAMAMYIARRMTNRNKNELWNGTLQHYSGGIDPIHDEAFQSLCIDLVKDIASSKTHLDSLILKYKKPRYGSVYFQTFKWCTSEMHSNFQNLFNLK
chain 2: not shown
notes: Clb5, S-phase B-type cyclin, S. cerevisiae; Cdk1 (Cdc28), cyclin-dependent kinase, S. cerevisiae; also called Clb5-Cdc28; source: S. cerevisiae strain ySK119, purified
B2: GST-Sic1 (natural protein, S. cerevisiae, UniProt P38634 1-284, looked up)
chain: MTPSTPPRSRGTRYLAQPSGNTSSSALMQGQKTPQKPSQNLVPVTPSTTKSFKNAPLLAPPNSNMGMTSPFNGLTSPQRSPFPKSSVKRTLFQFESHDNGTVREEQEPLGRVNRILFPTQQNVDIDAAEEEEEGEVLLPPSRPTSARQLHLSLERDEFDQTHRKKIIKDVPGTPSDKVITFELAKNWNNNSPKNDARSQESEDEEDIIINPVRVGKNPFASDELVTQEIRNERKRAMLRENPDIEDVITYVNKKGEVVEKRRLTDEEKRRFKPKALFQSRDQEH
notes: source: E. coli BL21-DE3-Rosetta (plasmid pGEX-Sic1), purified (glutathione elution)

In assay [1] the target is T1, origin recognition complex (ORC), wild type, unphosphorylated (S. cerevisiae, UniProt P54784 1-914; P32833 1-620; P54790 1-616; P54791 1-529; P50874 1-479; P38826 …).
T1 construct: Orc1, subunit of the origin recognition complex, S. cerevisiae; Orc2, subunit of the origin recognition complex, S. cerevisiae; Orc3, subunit of the origin recognition complex, S. cerevisiae; Orc4, subunit of the origin recognition complex, S. cerevisiae; Orc5, subunit of the origin recognition complex, S. cerevisiae; Orc6, subunit of the origin recognition complex, S. cerevisiae; For the …
Description: co-IP; purified proteins: 5 pmol FLAG-Clb5-Cdk1 and 10 pmol ORC in 20 uL SM buffer with 1 mM ATP, 20 min; 10 pmol GST-Sic1 added to one of two reactions for 5 min; magnetic anti-Flag beads, 3 washes, elution with 3xFLAG peptide, SDS gel. The settings on record: both partners purified.

For the assay “FLAG-Clb5-Cdk1”, the target named is B1. The assay is described as above. The settings on record: both partners purified.

FLAG-Clb5-Cdk1, sequence (P00546 whole entry): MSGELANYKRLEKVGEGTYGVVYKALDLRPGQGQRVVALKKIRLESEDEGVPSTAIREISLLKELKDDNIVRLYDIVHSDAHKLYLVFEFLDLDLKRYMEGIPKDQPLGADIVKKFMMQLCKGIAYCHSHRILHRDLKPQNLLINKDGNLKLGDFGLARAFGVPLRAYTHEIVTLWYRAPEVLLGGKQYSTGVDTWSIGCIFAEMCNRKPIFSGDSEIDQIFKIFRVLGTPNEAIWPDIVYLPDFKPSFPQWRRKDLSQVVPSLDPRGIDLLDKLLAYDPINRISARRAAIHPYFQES

For B1, in assay [1], the binding result is “binds”. B2: the binding result with FLAG-Clb5-Cdk1 is on record as “binds”.
